The record followed here is article PMC3988174.

For assay [1], the target named is atToc159 G-domain bait (Arabidopsis thaliana) (UniProt O81283). Kind of assay: two-hybrid; pairwise split-ubiquitin yeast two-hybrid of isolated NubG-preys with Toc159G, Toc132G or Toc132AG bait in NMY51; growth on SD-LWHA (3-AT) and quantitative β-Gal assay, activity relative to a reference bait set to 100%.
Assay [2] has as its target atToc132 G-domain bait (Arabidopsis thaliana) (UniProt Q9SLF3). The assay is described as above.

Chain of atToc159 G-domain bait (Arabidopsis thaliana) (O81283 728-1092): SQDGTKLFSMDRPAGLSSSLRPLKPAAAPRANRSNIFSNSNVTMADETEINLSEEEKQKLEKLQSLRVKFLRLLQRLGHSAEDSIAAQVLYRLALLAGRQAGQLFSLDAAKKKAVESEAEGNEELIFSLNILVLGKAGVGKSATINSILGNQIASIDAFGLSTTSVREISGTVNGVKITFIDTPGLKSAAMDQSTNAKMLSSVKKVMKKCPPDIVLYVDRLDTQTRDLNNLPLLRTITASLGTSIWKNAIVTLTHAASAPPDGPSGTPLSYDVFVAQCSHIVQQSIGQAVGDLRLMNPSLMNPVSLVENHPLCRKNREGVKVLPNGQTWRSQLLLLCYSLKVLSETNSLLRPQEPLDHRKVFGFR
Chain of atToc132 G-domain bait (Arabidopsis thaliana) (Q9SLF3 456-794): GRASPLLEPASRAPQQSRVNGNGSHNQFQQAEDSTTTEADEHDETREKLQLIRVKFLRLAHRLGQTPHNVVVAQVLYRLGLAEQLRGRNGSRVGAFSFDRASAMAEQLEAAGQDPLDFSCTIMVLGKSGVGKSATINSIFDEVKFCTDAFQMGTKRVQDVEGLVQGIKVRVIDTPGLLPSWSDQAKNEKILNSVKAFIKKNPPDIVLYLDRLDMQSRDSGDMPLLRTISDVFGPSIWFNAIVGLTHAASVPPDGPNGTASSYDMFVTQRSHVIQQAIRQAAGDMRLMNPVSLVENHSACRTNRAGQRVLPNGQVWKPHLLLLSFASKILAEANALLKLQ

B1: Light-Harvesting Chlorophyll-Protein Complex I Subunit A4 (natural protein)
chain: MATVTTHASASIFRPCTSKPRFLTGSSGRLNRDLSFTSIGSSAKTSSFKVEAKKGEWLPGLASPDYLTGSLAGDNGFDPLGLAEDPENLKWFVQAELVNGRWAMLGVAGMLLPEVFTKIGIINVPEWYDAGKEQYFASSSTLFVIEFILFHYVEIRRWQDIKNPGSVNQDPIFKQYSLPKGEVGYPGGIFNPLNFAPTQEAKEKELANGRLAMLAFLGFVVQHNVTGKGPFENLLQHLSDPWHNTIVQTFN
For the molecule B1, the % decrease in strength of interaction (β-Gal) with Toc159G against Toc132G in assay [1] was -38.5%.

B2: Protochlorophyllide oxidoreductase B (natural protein)
chain: MALQAASLVSSAFSVRKDAKLNASSSSFKDSSLFGASITDQIKSEHGSSSLRFKREQSLRNLAIRAQTAATSSPTVTKSVDGKKTLRKGNVVVTGASSGLGLATAKALAETGKWNVIMACRDFLKAERAAKSVGMPKDSYTVMHLDLASLDSVRQFVDNFRRTETPLDVLVCNAAVYFPTAKEPTYSAEGFELSVATNHLGHFLLARLLLDDLKKSDYPSKRLIIVGSITGNTNTLAGNVPPKANLGDLRGLAGGLNGLNSSAMIDGGDFDGAKAYKDSKVCNMLTMQEFHRRFHEETGVTFASLYPGCIASTGLFREHIPLFRALFPPFQKYITKGYVSETESGKRLAQVVSDPSLTKSGVYWSWNNASASFENQLSEEASDVEKARKVWEISEKLVGLA
In assay [1], B2 showed a % increase in strength of interaction (β-Gal) with Toc159G against Toc132G of 40.5%.

B3: Photosystem II subunit X (natural protein)
chain: MASTSAMSLVTPLNQTRSSPFLKPLPLKPSKALVATGGRAQRLQVKALKMDKALTGISAAALTASMVIPEIAEAAGSGISPSLKNFLLSIASGGLVLTVIIGVVVGVSNFDPVKRT
On to B3, for which the % increase in strength of interaction (β-Gal) with Toc159G against Toc132G in assay [1] stood at 24%.

B4: Ferredoxin-thioredoxin reductase subunit A (natural protein)
chain: MNLQAVSCSFGFLSSPLGVTPRTSFRRFVIRAKTEPSEKSVEIMRKFSEQYARRSGTYFCVDKGVTSVVIKGLAEHKDSYGAPLCPCRHYDDKAAEVGQGFWNCPCVPMRERKECHCMLFLTPDNDFAGKDQTITSDEIKETTANM
Regarding B4, the % increase in strength of interaction (β-Gal) with 132G against 159G in assay [2] worked out at 45.2%.
